One assay addresses T1, p53 (UniProt P04637 1-393, limits assumed).
T1 construct: Endogenous protein in cell lysates
The experiment in a line: co-immunoprecipitation from cell lysate with septin-2 pull-down antibody, western blot. The protocol: (§1) For immunoprecipitation studies, two million SKOV3 WT and OVCAR-8 cells were seeded onto 100 mm dishes (Corning) and cultured to 80% confluency in complete DMEM media. Cells were rinsed in DPBS (Gibco), lysed, and quantified using Bradford assay. Lysates were adjusted to 1 μg/μl total protein concentration, with 500 μl lysate used for each IP reaction. Identical samples were prepared for pull-down antibody (Septin-2 or HE4) and isotype-matched IgG control (#3900, Cell Signaling), with antibody concentration identical at 40 ng/μl. Further processing and PAGE analysis of samples was conducted to resolve the bands. The resulting membranes were probed for HE4 or Septin-2, p21 or P53, B-tubulin and other proteins of interest.

The next assay concerns the target T2, β-tubulin (UniProt P07437 1-444).
T2 construct: Endogenous protein in cell lysates; also called B-tubulin
Described as above. The protocol: as §1

T1 sequence (P04637 whole entry): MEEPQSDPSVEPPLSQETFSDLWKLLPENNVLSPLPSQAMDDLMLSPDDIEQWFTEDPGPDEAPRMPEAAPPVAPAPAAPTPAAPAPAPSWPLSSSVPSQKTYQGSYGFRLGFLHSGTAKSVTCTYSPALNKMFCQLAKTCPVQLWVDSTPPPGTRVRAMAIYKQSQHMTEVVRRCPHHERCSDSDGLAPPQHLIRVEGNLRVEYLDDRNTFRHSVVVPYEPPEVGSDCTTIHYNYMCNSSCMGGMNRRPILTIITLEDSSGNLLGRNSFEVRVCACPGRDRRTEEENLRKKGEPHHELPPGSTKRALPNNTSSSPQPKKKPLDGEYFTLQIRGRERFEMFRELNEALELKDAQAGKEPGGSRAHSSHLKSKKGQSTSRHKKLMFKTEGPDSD
T2 sequence (P07437 whole entry): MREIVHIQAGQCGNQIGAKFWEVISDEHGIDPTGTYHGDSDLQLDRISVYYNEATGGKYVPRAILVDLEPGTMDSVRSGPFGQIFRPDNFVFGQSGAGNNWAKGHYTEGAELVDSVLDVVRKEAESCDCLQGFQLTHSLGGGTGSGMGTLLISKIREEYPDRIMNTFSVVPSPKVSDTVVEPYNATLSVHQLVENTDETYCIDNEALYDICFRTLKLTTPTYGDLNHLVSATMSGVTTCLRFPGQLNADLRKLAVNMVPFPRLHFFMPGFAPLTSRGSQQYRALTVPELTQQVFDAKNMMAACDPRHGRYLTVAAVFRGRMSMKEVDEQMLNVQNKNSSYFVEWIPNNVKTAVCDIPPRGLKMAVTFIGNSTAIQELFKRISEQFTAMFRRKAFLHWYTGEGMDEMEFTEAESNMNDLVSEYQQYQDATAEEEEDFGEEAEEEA

B1: septin-2 (other)
chain: MSKQQPTQFINPETPGYVGFANLPNQVHRKSVKKGFEFTLMVVGESGLGKSTLINSLFLTDLYPERVIPGAAEKIERTVQIEASTVEIEERGVKLRLTVVDTPGYGDAINCRDCFKTIISYIDEQFERYLHDESGLNRRHIIDNRVHCCFYFISPFGHGLKPLDVAFMKAIHNKVNIVPVIAKADTLTLKERERLKKRILDEIEEHNIKIYHLPDAESDEDEDFKEQTRLLKASIPFSVVGSNQLIEAKGKKVRGRLYPWGVVEVENPEHNDFLKLRTMLITHMQDLQEVTQDLHYENFRSERLKRGGRKVENEDMNKDQILLEKEAELRRMQEMIARMQAQMQMQMQGGDGDGGALGHHV
notes: Endogenous protein in lysates of the ovarian cancer cell lines SKOV3 WT and OVCAR-8, pulled down with a septin-2 antibody
In the case of B1, the binding result in the assay with p53 and with β-tubulin was “no binding” throughout.

The values are drawn from patent US20180188257A1 (UNIVERSITY OF ROCHESTER, published 2018).
